# Reference: publication PMC11392403
# Molecular target: recombinant Fasciola hepatica enolase (rFhENO) (Fasciola hepatica) (UniProt Q27655)
# Assay: SEC; Superdex 75 10/300 GL, 0.4 mL/min, 100 μg rFhENO injected; markers carbonic anhydrase 29 kDa, BSA 66 kDa, alcohol dehydrogenase 150 kDa; dimer to monomers
substance,measurement,value
recombinant Fasciola hepatica enolase (rFhENO) (from UniProt Q27655 1-431) (enzyme),percent of the protein eluting in the homodimeric form,86.5%
same,stoichiometry N,2
